Assay results: patent US20260258115A1
Changes are numbered by the printed parent chain.

B1: ADI-41243 (antibody, V domains shown)
VH: QVQLVQSRAEVKKPGESLKISCKGSLHSFSNNWIGWVRQMPGKGLEWMGIIFPDDSDTRYSPSFQGQVTISADKSISTAYLQWSSLKASDTAIYYCGTVVTLIQGVADWGQGTLVTVSS
VL: QPVLTQPHSVSESPGKTVTISCTRSSGSIDSSYVQWYQQRPGSSPTTVIYEDNLRPSGVPDRFSGSIDSSSNSASLTISGLKTEDEAEYYCQSYDSSNPVVFGGGTKLTVL
B2: ADI-41275 (antibody, V domains shown)
VH: EVQLVESGGGLVKPGGSLRLSCAASGFMFSTYSMNWVRQAPGKGLEWVSFITGSSSDKYYAHSVKGRFTISRDNAKRTLYLQLNSLRAEDTAVYYCARFRGLYCDGDCSSRGNTYYNYYGMDVWGQGTTVTVSS
VL: EIVMTQSPLSLSVIPGEPASISCRSSKSLLHSNGYTYLDWYLQKPGQSPQLLIHLGSNRASGVPDRFSGSGSGTDFTLKISRVEAEDVGVFYCMQALQAPPTFGPGTKVEIK
B3: ADI-41277 (antibody, V domains shown)
VH: QVQLQESGPGLVKPSGTLSLTCAVSGGSITGRNWWSWVRQPPGKELERIGEIYHGGSTEYNPSLKGRVTISVDKSKNQFSLRLNSVTAADTAVYYCARVAHYDSNGYYIGYFDLWGRGTLVTVSS
VL: EIVLTQSPPSLSASVGDRVTITCRASQSISIYLNWYQQKPGKAPKLLIFAASSLQSGVPLRFSGSGSGTDFTLTISSLQPEDFATYYCHQSYSAPWTFGQGTKVDIK
B4: ADI-41282 (antibody, V domains shown)
VH: QVQLVQSGGGVVQPGRSLRLSCAASGFMFTIYSMHWVRQAPGKGLEWVAVISNDGVNKYYSDSVKGRFTISRDNSKNTLYLQMNNLRAEDTAVYYCASDIVVLVTATDYWGQGTLVTVSS
VL: ETTLTQSPVTLSLSPGERATLSCRTSQSFSSPLLAWYQQKPGQAPRLLIYGASNRATGIPDRFSGSGSGTDFTLTISRLEPVDFAVYYCQQYGSSPYTFGQGTKLEIK
B5: ADI-41279 (antibody, V domains shown)
VH: QVQLVQSGAEVKKAGETLKISCRGPAHTFTSFWIGWVRQTPGKGLEWMGNIYPGDTDTTYSPSFRGQVTISADKSISTAYLQWNSLKASDTAIYYCATRVRHGYSSSGSFESWGQGTMVTVSS
VL: QSVVTQPPSVSGAPGQRITISCTGSNSNTGAGYDVHWYQQLPGAAPKLLIFANNNRPSGVPDRFSGSKSGTSASLAITGLQAEDEADYYCQSYDNSLSAYVFGTGTKLTVL
B6: ADI-41241 (antibody, V domains shown)
VH: QVQLVQSGAEVKKPGASVQVSCKASGYTFTGDYMHWVRQAPGQGLEWMGRINPNSGGTNYAQKFQGRVTMTRDTSISTAYMELSRLRSDDTAVYYCARAAAEYSSSSPTSYYYMDVWGKGTTVTVSS
VL: EIQMTQSPSSLSASVGDRVTITCRASQNIYSFLNWYQQKPGKAPKLLIYAASSLQSGVPSRFSGSGSATDFTLTISSLQPEDFATYYCQQSYSPPQITFGQGTKVDIK
B7: ADI-41267 (antibody, V domains shown)
VH: QVQLVQSGPGLVKPSGTLSLTCAVSGGSISTTHWWSWVRQPPGKGLEWIGEIYHSGSTNYNPSLKSRVTISVDKSRSQFSLKLTSVTAADTAVYYCARGDPLCSGGICYSGYFDYWGQGTLVTVSS
VL: SYVLTQPPSVSVSPGQTATITCSGDKLGDQYACWYQQKSGQSPVLVIYRDNKRPSGIPERFSGSNSGNTATLTISETQAMDEADYYCQAWGSSSVVFGGGTKVTVL
B8: ADI-41281 (antibody, V domains shown)
VH: QVQLVQSGAEVKKPGASVKVSCKASGYSFTNHGIHWVRQAPGQRLEWMGWINVANGFTAYSQNLQGRVTFTRDTSASTAYLELTSLRSEDTAVYHCARDESYCSAGYCYLYFDYWGQGTTVTVSS
VL: DIQVTQSPSSLSASVGDRVTITCRASQNIITYVNWYQQKPGKAPELLIFGASSVQSGVPSRFSGSGSGTDFTLTISSLRPDDFATYYCQQSYSNPRTFGGGTKVEIK
B9: ADI-41280 (antibody, V domains shown)
VH: QVQLVESGPGLVKPSETLALTCTVSGGSLSTYYWSWIRQPPGKGLEWIGYIYYSGTTYYNPSLKSRVTISEDRSKNQFSLKLTSVTAADTAVYYCARHGPKTEFWSAQYYLELWGRGTLVTVSS
VL: EIVLTQSPGTLSLSPGERATLSCRASQSVSSDYLAWYQQKPGQAPSLLIYGVSTRATGIPDRISGSGSGTDFTLTISRLEPEDFAVYYCHQYGTSPWTFGQGTKVEIK
B10: ADI-41252 (antibody, V domains shown)
VH: EVQLVQSGAEVKKPGESLKISCMGSGYNFPNYWIGWVRQMSGKGLEWMGIIYPDDSDTTYSPSFQGQVIFSADKSISTAYLQWSSLKASDTAMYFCVRLDKTTQIDFWGQGTLVTVSS
VL: EIVLTQSPSSLSASVGDRVTITCQASQDISNYLNWYQQKPGKAPKLLIYDVSNLETGVPSRFSGSGSGTDFTFTISSLQPEDIATYYCQQHDNLPLTFGQGTRLEIK
B11: ADI-41273 (antibody, V domains shown)
VH: EVQLLESGGDLVRPGGSLRLSCTASGFSFSSSEMNWVRQAPGKGLEWVASINSGGDDIYYADSVKGRFTISRDNAKNSLSLQMDSLRAEDTALYYCARSRSGYSSGWSRFFGNWGQGTLVTVSS
VL: QSALTQPRSVSGSPGQSVTISCTGTISDIGAYNYVSWYQQHPGKAPKVMIYDVSKRPSGVPDRFSGSKSGFTASLTISGLQAEDEADYYCCSYAGRWVFGGGTKLTVL
B12: ADI-41265 (antibody, V domains shown)
VH: EVQLVQSGAEVKKPGESLTISCKDSGYSFTSYWIGWVRQVPGKGLEWMGIVYPGDSRYSPSFQGHVTMSADKSINTAYLQWSTLKASDTAMYYCAKVVTYGSAIRWFESWGQGTLVTVSS
VL: QSVLTQPPSVSAAPGQKVSISCSGSSSNIGNNFVSWYQQVPGTAPKLLIIDNNKRPSGIPDRFSGSKSGTSATLGITGLQTGDEADYYCGTWDSRLSAEVFGGGTKLTVL
B13: ADI-41270 (antibody, V domains shown)
VH: EVQLVESGGGVVQPGQSLRLSCAASGFTFSSFAMHWVRQAPGKGLEWVAVISYDGSNKYYADSVKGRFTISRDNSKNTLSLQVNSLRAEDTAVYYCARVSAEGSMGRFSDFNYWGLGTLVTVSS
VL: QSALTQPASVSGSPGQSITISCTGTSSDVGSYNLVSWYQQHPGKAPKLMIYEVRKRPSGVSNRFSGSKSGNTASLTISGLQAEDEADYYCCSYAGSDTYVFGTGTKLTVL
B14: ADI-41250 (antibody, V domains shown)
VH: QVQLQQWGAGLLKPSETLSLTCAVSGESLTGYFWSWIRQPPGKGLEWIGEVSHSGSTNYNPSLKSRVTMSVDTSKTQFSLKLNSVTAADTAVYYCARGYDYWSGTARYFDYWGQGILVTVSS
VL: QPVLTQPASVSGSPGQSITISCTGTSSDVGGYNYVSWYQQHPGKAPKLMIYDVSNRPSGVSSRFSGSKSGNTASLTISGLQAEDEGDYYCSSYRSSTTSRVFGGGTKVTVL
B15: ADI-41278 (antibody, V domains shown)
VH: EVQLVESGPALVKPTQTLTLTCTFSGFSLSTKRMGVSWIRQPPGKALEWLARIDWDDDKFYSTSLKTRLTISKDTSKNQVVLTLANMDPVDTATYFCARTTVYASGGYYLYYLDYWGQGTLVTVSS
VL: DIVMTQTPSSLSASVGDRVTLTCRASQRIASYVNWYHQKPGKAPNLLIYAASNLQSGVPSRFSGSGSGTDFTLTISSLQPEDFATYYCQQSYSTPLTFGQGTKLEIK
B16: ADI-41248 (antibody, V domains shown)
VH: QVQLVQSGGGVVQPGRSLRLSCAASGFTFSSYSMHWVRQAPGKGLEWMAVCWYDGSNIYYADSVKGRFTISRDNSKNTVYLQMNSLRAEDTAVYYCARDDRYCSGGTCLSAFDIWGQGTMVTVSS
VL: ETTLTQSPSSLSASVGDRVTITCRASQSISSYLNWYQQKPGRAPKLLIYTTSSLQSGVSSRFSGSGSGTDFTLTINSLQPEDFATYYCQQSYSTPNTFGQGTKVEIK
B17: ADI-41247 (antibody, V domains shown)
VH: QVQLVQSGAEVKKPGASLQVSCKASGYTFTDSYFHWVRQAPGQGLEWMGRISPHSGGTNYAQKFQGRVTMTRDTSISTAYLELSRLRSDDTAVYYCATEGPRGPFRFDPWGQGTLVTVSS
VL: NFMLTQPHSVSESPGKTVTISCTRSSGSIASNYVQWYQQRPGSSPTTVIYEDNQRPSGVPDRFSGSIDSSSNSASLTISGLMTEDEADYYCQSYDSSNWVFGGGTKLTVL
B18: ADI-41263 (antibody, V domains shown)
VH: QVQLVQSGAEVKKPGASVKVYCKASGYTFTSHYIHWVRQAPGQGLEWMGRMNPSGGSPMYAQKFQERVTMTRDTSTSTAYMELRSLRSEDTAVYYCAMAKFYSFDYWGQGTLVTVSS
VL: B17 VL with N1Q, F2S, M3V, N32Y, Y33F, Q35H, S44A, T47I, M82K
B19: ADI-41284 (antibody, V domains shown)
VH: QVQLVQSGGGLVKPGGSLRLSCAASGFTFSNAWMSWVRQAPGKGLEWVGRIKSEVDGGTADYAANVKGRLTISRDDSKNMMYLQMNSLKTEDTAVYYCTTDPGVGWIFGEVKLFRTDPEYWGQGTLVTVSS
VL: QSVLTQPPSVSAAPGQKVTISCSGSSSNIGNHYVSWYQQLPGTSPKLLIYDNNKRPSGIPDRFSGSKSGTSATLGITGLQPGDEADYYCGTWDSSLSAVRVFGGGTKVTVL
B20: ADI-41283 (antibody, V domains shown)
VH: QVTLKESGPTLVKPTQTLTLTCTFSGFSLSTFGVAVGWIRQPPGKALEWLALIYWDDDKRYSPSLKSRLTITKDISKNQVVLTMTNMDPVDTATYYCAHRLRSLTARGVFDIWGQGTTVTVSS
VL: DIRLTQSPSSLSASVGDRVTITCRASQSINNFLNWYQQRPGKAPTLLIYSASSLQSGVPSRFSGSGSGTDFTLTISSLQPEDFATYFCQQTDSFPWTFGQGTKVEIK

These binders were tested against RSV postfusion F (postF, F deltaFP) (Respiratory syncytial virus) (assay: BLI, IgG on sensor, 100 nM antigen).

Binder | Kd
B1 | 0.418 nM
B2 | 1.33 nM
B3 | 0.78 nM
B4 | 1.25 nM
B5 | 47.8 nM
B6 | 0.927 nM
B7 | 10.9 nM
B8 | 1.58 nM
B9 | 0.483 nM
B10 | 1 nM
B11 | 1.17 nM
B12 | 3.08 nM
B13 | 0.617 nM
B14 | 0.504 nM
B15 | 0.482 nM
B16 | 0.392 nM
B17 | 1.02 nM
B18 | 0.345 nM
B19 | 0.547 nM
B20 | 7.95 nM

What follows are binders tested against RSV prefusion F (preF, DS-Cav1) (Respiratory syncytial virus) (assay: BLI, IgG on sensor, 100 nM antigen).

Binder | Kd
B1 | 3.55 nM
B2 | 5.74 nM
B3 | 3.6 nM
B4 | 3.25 nM
B5 | 50.4 nM
B6 | 3.84 nM
B7 | 10.7 nM
B8 | 6.7 nM
B9 | 3.62 nM
B10 | 1.37 nM
B11 | 3.06 nM
B12 | 15 nM
B13 | 4.92 nM
B14 | 0.731 nM
B15 | 1.28 nM
B16 | 3.35 nM
B17 | 2.76 nM
B18 | 2.9 nM
B19 | 3.06 nM
B20 | 27.4 nM
